# According to the DeepSol protein solubility set:
# Experiment: soluble on expression in E. coli; label from the status in PepcDB or PDB records
row,Sequence,soluble on expression in E. coli
1,MVIGQKVLLARIPKMGDNYSTYLLDIEGTVCPISFVKETLFPYFTNKVPQLVQQDTRDSPVSNILSQFHIDNKEQLQAHILELVAKDVKDPILKQLQGYVWAHGYESGQIKAPVYADAIDFIKRKKRVFIYSSGSVKAQKLLFGYVQDPNAPAHDSLDLNSYIDGYFDINTSGKKTETQSYANILRDIGAKASEVLFLSDNPLELDAAAGVGIATGLASRPGNAPVPDGQKYQVYKNFETL,not soluble
2,MVIRMAYSELYWQKEEVMPKKELEELQLKRLRWVVRHAYENVAHYRRKLKEAGVHPDDIKKREDIAKIPFTTKKDFAENYPFGLFAVPKEEIVRLHTSSGTTGKPKVVGYTANDLENWINLVARCLYMVGVRKHDIFQNMANYAFFTGGLGIHDGAERIGAMVIPAGVGNTERQVRCMADFGTTAIHSTPSYALHVKEVAEELGVDDKLSLRIGCFGAEPWSENTRKRLEDAFNIKAFDSYGLSEMNGPGVAFECEEQHGLHIWADHYFIEIIDPQTGEPLSEGEKGELVLTPLTKEALPVLRYRTGDITYIMDDECSCGRTHPKIHRILGRSDDMIIVRGINVFPSQIEHVLMQIPEVGDHFQVVITRNGTLDEITVRVEVRDELFTGELFDLQRLQQKVQRELQKELGLRTNVELVEKGTIERSKGKAKRVLDLREEL,not soluble
3,MVISMSDLTFEDVKKEISALDKLSDLEAKKYADTGGYADVIARANNLKTTQLRKFFSAIRSMEKKADSWKSIEADFYLLKPQLANARGRDLIPEGFYEVMKKMMDKVDRGDDDEKIENFRVFVRFLESIVAYHKFYNPRS,not soluble
4,MVITDTAAWVQSQSRSIVDFISAPNSNSSLPPYVQIGAAAAVTMGLGYYLSKSSSSTSGSYSFSGVTYSGNVKPLVDPMNQSRILPDGSRISAYLKDDELQAFLFEDARTLYQGVRRGARLSNNGPMLGRRVKQSDGSIPYVWESYNTILERADNVSVAFRELGVPTGNAENIGIYSKNRAEWIITEFATYNYSNVIVPIYETLGSEASIFILNQAEIKIVVCDDISKATGLLKFKEQCPSLSTLVVMEPVTDELKTTASSLGVEVLTFEDLEKIGKNAKTRPAHIPPTPEDLATICYTSGTTGTPKGVMLTHANVIADGVCMDFFKHSGIAATDSMISFLPLAHMLERVIESVCFCVGAKVGFYRGDIRVLAEDIKELKPTVVPVVPRVLNRLYDKVMSEVNKSTLKKMLFDFAISYKARDMANFNIRNDGFFDNLVFKKIREGFGGRVRLMITGSAPLSTNVLTFVRAAMGCVVVEGYGQTECVAACTVSMEGDSLAGHVGMVIPSCQIKLVDVPELNYYAKDQAGEVCVKGHIIFKGYYKNEQQTKETIDEDGWLHTGDIGRWTPEGTLKIVDRKKHIFKLSQGEYVAPEKIENIYVRSKYVAQSFVHGESLKTCLIAIVVPDAEVLVPAMADQGIKGTFEELCNNDAVKKAILDDMVAVGKKAGLFSFEQVRDISLSAEQFSVENDLLTPTLKSKRPKLKAHYSKQLDAMYSKLP,not soluble
5,MVITKIVGHIDDLSHQIKKVDWLEVEWEDLNKRILRKETENGTDIAIKLENSGTLRYGDVLYESDDTLIAIRTKLEKVYVIKPQTMQEMGKMAFEIGNRHTMCIIEDDEILVRYDKTLEKLIDEVGVSYEQSERRFKEPFKYRGHQH,soluble
6,MVKAISTEKDLLLKVDKSFPWETFRSKLKSLYSKKPKWNVISLLKVLLIKLIFDISWNNLEGEIRDSKMFMDFLGGKIPPKSTVFSFYKKLQQTVIQEGETMRTTLMDELNKALDKAISEYREKGFELEVGREKKTEKVSKGTYPPKIDTFLPVKPYPREKRSLSKTGSLEHHHHHH,soluble
7,MVKKAAATSKQATYHSDEIEMKEEVVLNTYDECTDYVEYDDTKQFDINEYCDQIQVAMVNESDDGMTLEFDITRIEAPIANALRRVLIAEVPTMALEKIYLYQNTSVIQDEVLCHRLGLLPLRVDPRGFQFPKEKVVGINEKGVDCDEEPEGDPAKNLIFKINVSCTKNRNAVPTATDPKQLYHNSSVYSRAFEWVPIADQKTQFTEEAHPRMVSDDILVAKLRPGQEIEASCHAVKGIGRDHAKFSPVATASYRLLPTIRLNAEISGEAAERLKSVFSEGVIAIEKKGAKRIAVVKDARKDTCSRNVFRHEDLSKVVQLGKNKQHFIFSVESTGALKSSELVVEACKVMEIKCRSLRKQIEALIQ,not soluble
8,MVKKITVYTAFGQFLKMVELQMEQEMEKMNEIETDKLPIDHQLSDYQNNIESGNDRQVQSCPVDVSIPKEVMKCASCPLLCFNCSVQMPVSPVPTTIESRKINETTQLMMEFWKIVASKSEEEKLPSLFENVEGLFSVPFSTFGTWDDDTLSGVTSLNFEKSDEQLSEQDDDKTTVWSSNFPSAHVLTVYENSEQKTDEMADDEMSDTTSSFLSTLSTTMSAQVPALHLLQRVQLQRSVIKKQKKIIDSFSELQNLNKKLADLRKKHRD,not soluble
9,MVKKVLLINGPNLNLLGTREPEKYGTTSLSDIEQAAIEQAKLKNNDSEVLVFQSNTEGFIIDRIHEAKRQGVGFVVINAGAYTHTSVGIRDALLGTAIPFIEVHITNVHQREPFRHQSYLSDKAVAVICGLGVYGYTAAIEYALNY,soluble
10,MVKPMHLFAVVDALEQAQQFQQVLASRDVSTELVQIEQLNARFLRHHPELALCVDLDGLWLSANGMKMQPDWQAEIPRLKRASLKSEMIARACQINEQPSLIDATAGLGHDSLLMAYLGAHVTLVERHPVLFTLLEDAKSKAENDPFLSKYMQRIHLIFQDAHYYLQQCNQDDRKVDVIYLDPMFPQRDQHHQVIKKQAQVKKQMQLLHLLLPEDGEMDLGDQLLPLAQQIASRVVVKRPKHAVFLNEQQPDHQWQGDACRFDAYFQISM,not soluble
11,MVLADLGRKIRNAIGKLGQSTVINEGELDLMLKEVCTALIESDVHIRLVKQLKDNVKKAINFEEIVGGANKRRYIQKTVFNELLKLVDPGVTPFTPTKGRRNVFMFVGLQGSGKTTTCTKMAYYYQRKGWKTCLICADTFRAGAFDQLKQNATKARIPFYGSYSEIDPVKIAAEGVEKFTQEGFEIIIVDTSGRHKQEASLFEEMLQVSNAVTPDNVVFVMDASIGQACEAQARAFSQTVDVASVIITKLDSHAKGGGALSAVAVTKSPVIFIGTGEHIDDFEIFKPKSFVQKLLGMGDIAGLVDMVNDIGIQDNKELVGRLKQGQFTLRDMYEQFQNIMKMGPFSQIMGMIPGFGSEFMTKGNEQESVNRLKRMMTVMDSMSDKELDHPKASELFTKEPNRVARVARGSGSHQQEVRDLLAQYKKFSDVVKKIGSIKGLFNGKNGDINPKNMNPAKMAQLNQQMAKMMDPRVLQQMGGMGGLQNMMQQMARAGKM,not soluble
12,MVLLLRYRSLTINLTPLIPKSQKFHTLQSFRNPNFISIPKISASTNNPTTTTNRSISDATKFAKSVLFIPPGVEIEELTDDMVLPGSNIVIGPFAGHSQIKEVEFVKSSARARDCPKDDRPEIAILGRSNVGKSSLINCLVRKKEVALTSKKPGKTQLINHFLVNKSWYIVDLPGYGFAKVSDAAKTDWSAFTKGYFLNRDSLVCVLLLIDASVPPQKIDLDCANWLGRNNVPMTFVFTKCDKMKATKGKRPDENIKAFQQIIRENFKVHPPWILTSSVSGLGRDELLLHMSQLRNYWDQ,not soluble
13,MVLSHAVSESDVSVHSTFASRYVRTSLPRFKMPENSIPKEAAYQIINDELMLDGNPRLNLASFVTTWMEPECDKLIMSSINKNYVDMDEYPVTTELQNRCVNMIAHLFNAPLEEAETAVGVGTVGSSEAIMLAGLAFKRKWQNKRKAEGKPVDKPNIVTGANVQVCWEKFARYFEVELKEVKLSEGYYVMDPQQAVDMVDENTICVAAILGSTLNGEFEDVKLLNDLLVEKNKETGWDTPIHVDAASGGFIAPFLYPELEWDFRLPLVKSINVSGHKYGLVYAGIGWVIWRNKEDLPEELIFHINYLGADQPTFTLNFSKGSSQVIAQYYQLIRLGHEGYRNVMENCRENMIVLREGLEKTERFNIVSKDEGVPLVAFSLKDSSCHTEFEISDMLRRYGWIVPAYTMPPNAQHITVLRVVIREDFSRTLAERLVIDIEKVMRELDELPSRVIHKISLGQEKSESNSDNLMVTVKKSDIDKQRDIITGWKKFVADRKKTSGIC,soluble
